# Assays:
# [1] = test system: M2 macrophages; experiment: Flow cytometry of FITC-conjugated melittin on THP-1-derived M0, M1 and M2 macrophages; type: cell-based, human; details: 50 nM FITC-conjugated melittin, 1 hour; M2 macrophages compared to the other macrophage types
# Procedure: To confirm whether the melittin fabricated in Example 1 specifically bound to M2 tumor-associated macrophages (M2 TAMs), a human monocyte cell line THP-1 was differentiated into M0, M1, and M2 macrophages, and treated with FITC-conjugated melittin, and then confirmed by flow cytometry. Specifically, THP-1 cells were treated with 100 nM phorbol 12-myristate 13-acetate (PMA) at 37° C. for 24 hours (M0 macrophages), and the differentiated M0 macrophages were incubated with 100 nM LPS and 20 ng/ml IFN-γ at 37° C. for 72 hours to be differentiated into M1 macrophages (M1), and incubated with 20 ng/ml IL-4 and IL-13 at 37° C. for 72 hours to be differentiated into M2 macrophages (M2). The differentiated cells were treated with 50 nM FITC-conjugated melittin for 1 hour, detected with BD FACS CantoII instruments (BD biosciences, San Jose, CA, USA), and analyzed with FlowJo software (BD biosciences).
# [2] = test system: M2 macrophages; experiment: CCK-8 cell viability in M2 macrophages; type: cell-based, human; details: Melittin-dKLA 1 μM, control M2 macrophages
# Procedure: (§1) To confirm whether Melittin-dKLA bound to ITGB2 to induce apoptosis in M2 macrophages, Melittin-dKLA (1 μM) was treated for 24 hours to M2 macrophages in which ITGB2 expression was suppressed by Crispr/cas9 fabricated in Example 7-1 above, and cell viability was analyzed using a CCK-8 assay. Specifically, Melittin-dKLA (1 μM) reacted with ITGB2 knockdown macrophages fabricated in Example 7-1 above for 1 hour. After the reaction, the medium was replaced and cultured at 37° C. for 24 hours. To determine cell viability, a CCK-8 reagent (Enzo Life Sciences) was added in 1/10 of the medium and reacted at 37° C. for 3 hours. Absorbance was measured at 450 nm using a microplate reader (Molecular Devices).
# To confirm whether TB511 (TAMpep826-dKLA) induced apoptosis through ITGB2 in M2 macrophages, TB511 reacted with M2 macrophages in which ITGB2 expression was suppressed by Crispr/cas9 fabricated in Example 7-1.
# [3] = test system: M2 macrophages in which ITGB2 expression was suppressed by Crispr/cas9; experiment: CCK-8 cell viability in M2 macrophages with ITGB2 expression suppressed by Crispr/cas9; type: cell-based, human; details: Melittin-dKLA 1 μM, ITGB2 knocked down M2 macrophages
# Procedure: As a cell model used to confirm whether apoptosis was induced through ITGB2 in M2 macrophages, a cell model in which the expression of ITGB2 was suppressed in M2 macrophages was fabricated using Crispr/cas9. Specifically, cells differentiated into M2 macrophages were cultured in an Opti-MEM medium. The Crispr/cas9 was mixed with Cas9 protein V2 (Thermo Fisher scientific) and gRNA (Genscript; ITGB2; Table 7) of a CRISPRMAX™ Reagent kit (Thermo Fisher scientific) and a Cas9 Plus™ Reagent (Thermo Fisher scientific), and a CRISPRMAX™ Reagent was diluted in the Opti-MEM medium, mixed together, and reacted for 5 to 10 minutes, and then added to cells differentiated into M2 macrophages and cultured at 37° C. for 2 to 3 days. Thereafter, the mRNA expression level of ITGB2 was confirmed.
# as §1, with “To determine cell viability, a CCK-8 reagent (Enzo Life Sciences) was added in 1/10 of the medium and reacted at 37° C. for 3 hours.” left out, “Devices). […]” for “Devices).”
# [4] = target: ITGB2 protein immobilised on the SPR sensor chip (UniProt P05107)
# Sequence of ITGB2 protein immobilised on the SPR sensor chip (P05107 23-700 limits assumed): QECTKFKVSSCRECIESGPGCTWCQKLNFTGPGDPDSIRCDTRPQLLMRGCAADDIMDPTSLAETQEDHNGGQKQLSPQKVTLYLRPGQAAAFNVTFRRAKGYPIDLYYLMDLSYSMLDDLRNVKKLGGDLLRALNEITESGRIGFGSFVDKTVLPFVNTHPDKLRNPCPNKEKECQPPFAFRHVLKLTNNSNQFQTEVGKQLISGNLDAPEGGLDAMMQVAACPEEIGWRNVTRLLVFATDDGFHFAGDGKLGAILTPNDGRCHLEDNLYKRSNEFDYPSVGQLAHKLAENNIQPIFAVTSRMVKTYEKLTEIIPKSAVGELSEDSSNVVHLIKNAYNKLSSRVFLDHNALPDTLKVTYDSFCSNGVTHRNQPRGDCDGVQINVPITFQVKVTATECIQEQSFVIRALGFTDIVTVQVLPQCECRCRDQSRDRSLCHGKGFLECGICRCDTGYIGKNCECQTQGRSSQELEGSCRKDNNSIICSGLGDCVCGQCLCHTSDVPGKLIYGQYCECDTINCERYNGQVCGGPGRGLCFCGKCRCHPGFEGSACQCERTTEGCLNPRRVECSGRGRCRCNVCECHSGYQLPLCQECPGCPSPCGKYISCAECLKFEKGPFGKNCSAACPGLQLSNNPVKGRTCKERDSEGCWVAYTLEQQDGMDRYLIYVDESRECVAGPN
compound,measurement,setting,value
CC[C@H](C)[C@H](NC(=O)CN)C(=O)NCC(=O)N[C@@H](C)C(=O)N[C@H](C(=O)N[C@@H](CC(C)C)C(=O)N[C@@H](CCCCN)C(=O)N[C@H](C(=O)N[C@@H](CC(C)C)C(=O)N[C@H](C(=O)N[C@H](C(=O)NCC(=O)N[C@@H](CC(C)C)C(=O)N1CCC[C@H]1C(=O)N[C@@H](C)C(=O)N[C@@H](CC(C)C)C(=O)N[C@H](C(=O)N[C@@H](CO)C(=O)N[C@@H](Cc1c[nH]c2ccccc12)C(=O)N[C@H](C(=O)N[C@@H](CCCCN)C(=O)N[C@@H](CCCNC(=N)N)C(=O)N[C@@H](CCCCN)C(=O)N[C@@H](CCCNC(=N)N)C(=O)N[C@@H](CCC(N)=O)C(=O)N[C@@H](CCC(N)=O)C(N)=O)[C@@H](C)CC)[C@@H](C)CC)[C@@H](C)O)[C@@H](C)O)C(C)C)C(C)C [Melittin],FITC-positive cells,[1],significantly increased
"GIGAVLKVLTTGLPALISWIKRKRQQ-GGGGS-d[KLAKLAKKLAKLAK] (SEQ ID NO: 5), peptide with linker and drug dKLA attached to melittin [Melittin-dKLA]",cell viability,[2],significantly reduced
same,cell viability,[3],the decrease in cell viability by Melittin-dKLA was suppressed
Melittin-dKLA (peptide),Ka,[4],1.27e+07 M⁻¹
same,Kd,[4],78.6 nM
same,koff,[4],0.00381 s⁻¹
same,kon,[4],48500 M⁻¹ s⁻¹

# From patent US20250228951A1, “NOVEL-PEPTIDE-BASED ANTICANCER IMMUNOTHERAPEUTIC AGENT” (TWINPIG BIOLAB INC., priority 2022, published 2025)
